From patent US20260216326A1 (PROMETHEUS BIOSCIENCES, published 2026)

B2: recombinant human TL1A protein (tumor necrosis factor-like cytokine 1A) (ligand, UniProt O95150 72-251, looked up)
chain: LKGQEFAPSHQQVYAPLRADGDKPRAHLTVVRQTPTQHFKNQFPALHWEHELGLAFTKNRMNYTNKFLLIPESGDYFIYSQVTFRGMTSECSEIRQAGRPNKPDSITVVITKVTDSYPEPTQLLMGTKSVCEVGSNWFQPIYLGAMFSLQEGDKLMVNVSDISLVDYTKEDKTFFGAFLL
notes: Recombinant protein used in ELISA, SPR and the TF-1 caspase assay; also called TNFSF15; soluble TL1A

Key:
recombinant TL1A antigen = target: T1, recombinant TL1A antigen (UniProt O95150 72-251, limits assumed); test: ELISA titration against recombinant TL1A antigen
T1 sequence (looked up): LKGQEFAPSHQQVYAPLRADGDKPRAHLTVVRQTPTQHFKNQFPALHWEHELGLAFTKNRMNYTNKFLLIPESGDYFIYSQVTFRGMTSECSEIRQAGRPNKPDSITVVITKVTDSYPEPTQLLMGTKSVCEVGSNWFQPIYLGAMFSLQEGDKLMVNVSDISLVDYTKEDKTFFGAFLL

[1] = target: T2, DR3 (Death Receptor 3) natively expressed on human TF-1 cells (human, UniProt Q93038 25-417); test: TF-1 cell caspase activation assay
T2 construct: whole, on cells; also called TNFRSF25
T2 sequence (looked up): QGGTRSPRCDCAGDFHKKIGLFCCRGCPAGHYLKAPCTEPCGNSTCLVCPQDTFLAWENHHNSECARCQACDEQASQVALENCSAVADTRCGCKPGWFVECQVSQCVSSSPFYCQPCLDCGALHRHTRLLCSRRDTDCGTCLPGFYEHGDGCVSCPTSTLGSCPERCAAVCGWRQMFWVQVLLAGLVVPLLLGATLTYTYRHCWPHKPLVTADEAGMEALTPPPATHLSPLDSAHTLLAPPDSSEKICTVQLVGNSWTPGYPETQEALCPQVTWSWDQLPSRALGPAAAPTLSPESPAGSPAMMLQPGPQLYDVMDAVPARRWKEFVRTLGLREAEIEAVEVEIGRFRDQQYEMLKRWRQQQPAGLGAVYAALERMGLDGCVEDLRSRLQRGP
From the text: TF-1 cells are human erythroleukemic cells that natively express DR3, the functional receptor for TL1A.

TL1A in human blood [2] = target: T3, TL1A in human blood (human, UniProt O95150 72-251, limits assumed); test: cell-based or functional assay
T3 sequence (looked up): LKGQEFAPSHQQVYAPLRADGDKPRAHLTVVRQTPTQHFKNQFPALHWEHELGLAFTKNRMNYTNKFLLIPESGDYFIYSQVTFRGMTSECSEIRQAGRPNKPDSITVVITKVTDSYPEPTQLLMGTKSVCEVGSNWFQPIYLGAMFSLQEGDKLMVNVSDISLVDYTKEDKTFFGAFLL

TL1A in human blood [3] = target: T3, TL1A in human blood; test: cell-based or functional assay; remark: listed apart in the source
human TL1A [4] = target: T4, human TL1A (human, UniProt O95150 72-251, limits assumed); test: ELISA titration on plate-coated human TL1A, unpurified culture supernatant
T4 construct: also called tumor necrosis factor-like cytokine 1A; TNFSF15
T4 sequence (looked up): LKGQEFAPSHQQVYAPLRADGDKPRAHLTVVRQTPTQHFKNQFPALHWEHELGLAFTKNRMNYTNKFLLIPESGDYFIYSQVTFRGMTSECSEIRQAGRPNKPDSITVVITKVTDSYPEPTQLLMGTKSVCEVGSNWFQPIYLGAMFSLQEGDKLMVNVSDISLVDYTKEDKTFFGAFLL

Murine TL1A = target: T5, Murine TL1A (mouse, UniProt Q5UBV8 76-252, limits assumed); test: not named in the table (TL1A binding affinity row)
T5 construct: also called mouse TL1A
T5 sequence (looked up): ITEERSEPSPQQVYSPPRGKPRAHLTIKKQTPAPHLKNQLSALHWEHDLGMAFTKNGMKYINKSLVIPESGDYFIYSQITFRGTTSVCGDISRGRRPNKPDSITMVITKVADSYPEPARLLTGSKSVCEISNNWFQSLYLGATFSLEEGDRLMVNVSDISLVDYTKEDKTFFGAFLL

TNFSF10 = target: T6, TNFSF10 (human, UniProt P50591 114-281, limits assumed); test: not named in the table (specificity row)
T6 construct: also called TRAIL
From the text: (§1) TL1A is the only known ligand for its functional receptor DR3. TL1A is also capable of binding to Decoy receptor 3 (DcR3), a soluble TNF receptor without a transmembrane domain.

TNFSF6 (FasL) [5] = target: T7, TNFSF6 (FasL) (human, UniProt P48023 134-281, limits assumed); test: not named in the table (specificity row)
T7 sequence (looked up): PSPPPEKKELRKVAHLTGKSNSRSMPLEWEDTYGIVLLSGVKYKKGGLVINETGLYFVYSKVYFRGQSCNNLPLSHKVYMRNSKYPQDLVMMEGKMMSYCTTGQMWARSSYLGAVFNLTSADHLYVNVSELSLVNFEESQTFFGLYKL
From the text: as §1

Cynomolgus TL1A = target: T8, Cynomolgus TL1A (cynomolgus monkey, UniProt G7PRK8 72-251); test: method not given; three independent measurements, +/- standard deviation
T8 construct: also called cynomolgus monkey TL1A
T8 sequence: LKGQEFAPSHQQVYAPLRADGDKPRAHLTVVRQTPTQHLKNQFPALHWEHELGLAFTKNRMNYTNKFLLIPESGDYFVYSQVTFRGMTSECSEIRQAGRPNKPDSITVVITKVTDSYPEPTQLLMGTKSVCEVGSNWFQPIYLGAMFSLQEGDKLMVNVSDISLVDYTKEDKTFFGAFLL

human TL1A [6] = target: T4, human TL1A; test: as above
[7] = target: T9, cynomolgus monkey TL1A protein (cynomolgus monkey, UniProt G7PRK8 72-251); test: surface plasmon resonance (SPR), recombinant TL1A protein
T9 construct: Recombinant protein in ELISA, SPR and the TF-1 assay; In the monkey whole blood IFN-gamma assays the TL1A is made by the animal's own PBMCs; also called cynomolgus TL1A; Cyno TL1A
T9 sequence: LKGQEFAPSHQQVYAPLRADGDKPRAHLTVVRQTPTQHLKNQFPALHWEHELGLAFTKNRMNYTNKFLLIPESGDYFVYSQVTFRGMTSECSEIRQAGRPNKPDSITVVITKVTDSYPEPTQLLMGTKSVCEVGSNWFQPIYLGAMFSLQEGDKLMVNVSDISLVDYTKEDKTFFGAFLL

[8] = target: B2; test: as above
[9] = target: T9, cynomolgus monkey TL1A protein; test: ELISA on recombinant TL1A protein; cynomolgus monkey TL1A
TNFSF10 (TRAIL) = TNFSF10 (TRAIL) (human, UniProt P50591 114-281, limits assumed); test: ELISA
From the text: as §1

TNFSF6 (FasL) [10] = target: T10, TNFSF6 (FasL) (human, UniProt P48023 134-281, limits assumed); test: ELISA
T10 sequence (looked up): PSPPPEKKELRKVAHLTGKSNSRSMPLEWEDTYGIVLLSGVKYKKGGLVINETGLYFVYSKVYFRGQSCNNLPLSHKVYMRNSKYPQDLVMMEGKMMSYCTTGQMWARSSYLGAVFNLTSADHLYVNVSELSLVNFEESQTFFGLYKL
From the text: as §1

TNFSF14 (LIGHT) = TNFSF14 (LIGHT) (UniProt O43557 74-240, limits assumed); test: ELISA
From the text: as §1

[11] = target: T11, mouse recombinant TL1A protein (mouse, UniProt Q5UBV8 76-252, limits assumed); test: ELISA, titration of the antibody on recombinant mouse TL1A, A450 nm against [Ab] (nM), log axis
T11 construct: also called mouse TL1A; murine TL1A
T11 sequence (looked up): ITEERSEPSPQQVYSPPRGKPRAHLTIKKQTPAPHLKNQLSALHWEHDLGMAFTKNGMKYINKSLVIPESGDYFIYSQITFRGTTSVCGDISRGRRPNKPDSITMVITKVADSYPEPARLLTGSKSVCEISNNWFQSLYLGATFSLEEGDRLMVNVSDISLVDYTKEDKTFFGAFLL
Description: (§2) ELISA for each protein was performed at least three times. The data from a representative experiment are shown and are mean±SD. Abbreviations: A=absorbance, Ab=antibody, Cyno=cynomolgus, nm=nanometer, nM=nanomolar. […] Samples were assayed in triplicate, on two separate occasions. Data presented are the mean TL1A concentrations of three animals per group±SD.

[12] = target: T9, cynomolgus monkey TL1A protein; test: cell-based or functional assay
[13] = target: T12, membrane-bound human TL1A on TNFSF15/HEK293 cells (human, UniProt O95150 1-251); test: binding to TNFSF15/HEK293 cells stably transfected with human TL1A
T12 construct: whole, on cells; also called membrane-associated TL1A
T12 sequence (looked up): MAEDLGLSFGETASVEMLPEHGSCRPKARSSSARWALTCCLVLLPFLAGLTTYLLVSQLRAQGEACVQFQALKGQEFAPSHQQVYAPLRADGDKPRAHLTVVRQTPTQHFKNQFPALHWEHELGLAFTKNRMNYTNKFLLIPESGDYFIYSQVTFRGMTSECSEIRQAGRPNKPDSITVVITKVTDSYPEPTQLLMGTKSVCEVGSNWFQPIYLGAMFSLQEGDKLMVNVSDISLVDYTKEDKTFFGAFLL

[14] = target: T13, rat recombinant TL1A protein (rat, UniProt Q8K3Y7 76-252, limits assumed); test: ELISA, titration of the antibody on recombinant rat TL1A, A450 nm against [Ab] (nM), log axis
T13 construct: also called rat TL1A
T13 sequence (looked up): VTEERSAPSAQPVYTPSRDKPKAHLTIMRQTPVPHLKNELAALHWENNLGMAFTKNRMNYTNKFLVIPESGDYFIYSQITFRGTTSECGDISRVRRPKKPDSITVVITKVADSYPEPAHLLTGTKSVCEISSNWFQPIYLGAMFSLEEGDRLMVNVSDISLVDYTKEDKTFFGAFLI
Description: as §2

Chain of TNFSF14 (LIGHT) (O43557 74-240 limits assumed): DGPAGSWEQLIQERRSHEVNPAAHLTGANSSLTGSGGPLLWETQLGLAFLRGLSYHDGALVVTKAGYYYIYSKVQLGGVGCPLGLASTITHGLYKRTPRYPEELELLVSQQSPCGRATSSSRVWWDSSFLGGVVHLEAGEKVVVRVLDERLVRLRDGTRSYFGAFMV
Chain of TNFSF10 (TRAIL) (P50591 114-281 limits assumed): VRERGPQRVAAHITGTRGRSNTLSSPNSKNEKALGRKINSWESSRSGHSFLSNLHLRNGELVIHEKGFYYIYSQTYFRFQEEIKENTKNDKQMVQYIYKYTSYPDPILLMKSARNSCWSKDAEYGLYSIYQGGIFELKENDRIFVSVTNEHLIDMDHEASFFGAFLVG
T6 sequence (P50591 114-281 limits assumed): as above

B1: anti-TL1A antibody with heavy chain SEQ ID NO: 380 (IgG4, S228P, F234A, L235A; Fc SEQ ID NO: 367) and light chain SEQ ID NO: 381 (antibody)
heavy: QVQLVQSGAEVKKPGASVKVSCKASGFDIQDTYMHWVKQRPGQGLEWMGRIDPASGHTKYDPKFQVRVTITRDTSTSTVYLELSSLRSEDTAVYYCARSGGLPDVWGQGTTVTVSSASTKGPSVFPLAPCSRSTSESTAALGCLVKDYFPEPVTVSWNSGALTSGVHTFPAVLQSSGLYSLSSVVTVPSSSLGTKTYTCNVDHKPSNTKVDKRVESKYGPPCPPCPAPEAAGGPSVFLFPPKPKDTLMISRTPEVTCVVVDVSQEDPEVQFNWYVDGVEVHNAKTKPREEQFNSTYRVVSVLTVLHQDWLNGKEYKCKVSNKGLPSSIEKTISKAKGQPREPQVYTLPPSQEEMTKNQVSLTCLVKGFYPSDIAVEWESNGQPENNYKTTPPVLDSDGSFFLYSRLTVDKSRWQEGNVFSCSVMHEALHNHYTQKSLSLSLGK
light: EIVLTQSPGTLSLSPGERATLSCRASSSVSYMYWYQQKPGQAPRPLIYATSNLASGIPDRFSGSGSGTDFTLTISRLEPEDFAVYYCQQWEGNPRTFGGGTKLEIKRTVAAPSVFIFPPSDEQLKSGTASVVCLLNNFYPREAKVQWKVDNALQSGNSQESVTEQDSKDSTYSLSSTLTLSKADYEKHKVYACEVTHQGLSSPVTKSFNRGEC
EC50 (recombinant TL1A antigen): 0.252 nM

B2
binding result [1]: binds

B3: A219 (antibody, V domains shown)
VH: QVQLVQSGAEVKKPGASVKVSCKASGFDIQDTYMHWVKQRPGQGLEWMGRIDPASGHTKYDPKFQVRVTITRDTSTSTVYLELSSLRSEDTAVYYCARSGGLPDVWGQGTTVTVSS
VL: EIVLTQSPGTLSLSPGERATLSCRASSSVSYMYWYQQKPGQAPRPLIYATSNLASGIPDRFSGSGSGTDFTLTISRLEPEDFAVYYCQQWEGNPRTFGGGTKLEIK
notes: IgG1
% Inhibition at 1 nM Ig; interferon gamma release in human blood (TL1A in human blood [2]): 59.8%
% Inhibition at 10 nM Ig; interferon gamma release in human blood (TL1A in human blood [2]): 75.2%
IC50 values, Mean; inhibition of interferon gamma release from multiple human donors (TL1A in human blood [3]): 48.6
Kd (human TL1A [4]): 0.05 nM
binding result (Murine TL1A): no binding
binding result (TNFSF10): no binding
binding result (TNFSF6 (FasL) [5]): no binding
Kd (Cynomolgus TL1A): 0.0363 nM
Kd (human TL1A [6]): 0.059 nM

B4: anti-TL1A antibody A219 (antibody, V domains shown)
VH: QVQLVQSGAEVKKPGASVKVSCKASGFDIQDTYMHWVKQRPGQGLEWMGRIDPASGHTKYDPKFQVRVTITRDTSTSTVYLELSSLRSEDTAVYYCARSGGLPDVWGQGTTVTVSS
VL: EIVLTQSPGTLSLSPGERATLSCRASSSVSYMYWYQQKPGQAPRPLIYATSNLASGIPDRFSGSGSGTDFTLTISRLEPEDFAVYYCQQWEGNPRTFGGGTKLEIK
notes: Humanized monoclonal IgG1 with a kappa light chain, designed to abolish effector functions
Kd [7]: 0.04 nM
Kd [8]: 0.06 nM
EC50 [9]: 0.47 nM
binding result (TNFSF10 (TRAIL)): no binding
binding result (TNFSF6 (FasL) [10]): no binding
binding result (TNFSF14 (LIGHT)): no binding
binding result [11]: no binding (tested: about 30 nM)
IC50 of inhibition of TL1A-induced caspase activation in cycloheximide-treated TF-1 cells [12]: 0.59 nM
mean IC50 of inhibition of IFN-gamma release in monkey whole blood stimulated with immune complex, IL-12 and IL-18 [12]: 1.54 nM
EC50 [13]: 17.4 nM
binding result [14]: no binding (tested: about 30 nM)
